Experimental data from US20260146074A1 (CITY OF HOPE, published 2026).

Target: TAG72 on the surface of human tumor cells (LS174T, OVCAR3, OV90, OVCAR8-sTn, patient ascites OAS4 and OAS7) (human)
Experiment: cell-based or functional assay

B1: TAG72-BBζ CAR (hTag72scFv-IgG4(HL-CH3)-CD4tm-41BB-Zeta), expressed on human T cells (other)
chain: QVQLVQSGAEVVKPGASVKISCKASGYTFTDHAIHWVKQNPGQRLEWIGYFSPGNDDFKYNERFKGKATLTADTSASTAYVELSSLRSEDTAVYFCTRSLNMAYWGQGTLVTVSSGSTSGGGSGGGSGGGGSSDIVMSQSPDSLAVSLGERVTLNCKSSQSLLYSGNQKNYLAWYQQKPGQSPKLLIYWASARESGVPDRFSGSGSGTDFTLTISSVQAEDVAVYYCQQYYSYPLTFGAGTKLELKESKYGPPCPPCPGGGSSGGGSGGQPREPQVYTLPPSQEEMTKNQVSLTCLVKGFYPSDIAVEWESNGQPENNYKTTPPVLDSDGSFFLYSRLTVDKSRWQEGNVFSCSVMHEALHNHYTQKSLSLSLGKMALIVLGGVAGLLLFIGLGIFFKRGRKKLLYIFKQPFMRPVQTTQEEDGCSCRFPEEEEGGCELGGGRVKFSRSADAPAYQQGQNQLYNELNLGRREEYDVLDKRRGRDPEMGGKPRRKNPQEGLYNELQKDKMAEAYSEIGMKGERRRGKGHDGLYQGLSTATKDTYDALHMQALPPR
With B1 the “tumor killing relative to Mock, LS174T cells, 24 hours” value was 59%, the “tumor killing relative to Mock, LS174T cells, 72 hours” value was 77% and the “tumor killing relative to Mock, OV90 cells, 24 hours” value was 67%. For the same binder, the “tumor killing relative to Mock, OV90 cells, 72 hours” value was 97%, the “tumor killing relative to Mock, OVCAR3 cells, 24 hours” value was 79% and the “tumor killing relative to Mock, OVCAR3 cells, 72 hours” value was 90%.
